We go through one substance from patent US20020103152.

The series deals with Sleeping Beauty transposase (SB) (synthetic construct (salmonid Tc1-like, reconstructed)?). Put plainly: cell_activity. As to conditions: mouse liver, pRSV-βgeo without terminal repeats; 2-4% with repeats.

For “phAAT / pRSV-βgeo plasmids lacking terminal repeats”, the activity (% of hepatocytes) was less than 0.01.
